What was measured:
[1] = molecular target: CpaF from C. crescentus (C. crescentus NA1000); experiment: cryo-EM structure; 5 mg/mL CpaF without nucleotide addition, in the presence of Mg2+, 8 mM CHAPSO; single particle, C2 symmetry
[2] = molecular target: CpaF from C. crescentus (C. crescentus NA1000); experiment: cryo-EM structure; 5 mg/mL CpaF with 4 mM ADP, 5 mM MgSO4 in total, 8 mM CHAPSO, 45 min at room temperature before vitrification; single particle, C2 symmetry
[3] = molecular target: CpaF from C. crescentus (C. crescentus NA1000); experiment: cryo-EM structure; 5 mg/mL CpaF with 4 mM AMPPNP, 5 mM MgSO4 in total, 8 mM CHAPSO, 45 min at room temperature before vitrification; single particle, C2 symmetry

Measured: stoichiometry N

CpaF from C. crescentus (enzyme)
6: [1] | [2] | [3]

Reference: publication PMC11300603
